{"source": "paper PMC7090004", "about": "“IL28A protein homotetramer structure is required for autolysosomal degradation of HCV-NS5A in vitro” (Cell Death & Disease, 2020)", "molecules": {"B1": {"name": "Interferon lambda-2 (IL28A), wild type (natural protein, human, UniProt Q8IZJ0 26-200, looked up)", "chain": "VPVARLHGALPDARGCHIAQFKSLSPQELQAFKRAKDALEESLLLKDCRCHSRLFPRTWDLRQLQVRERPMALEAELALTLKVLEATADTDPALVDVLDQPLHTLHHILSQFRACIQPQPTAGPRTRGRLHHWLYRLQEAPKKESPGCLEASVTFNLFRLLTRDLNCVASGDLCV", "notes": "also called WT IL28A; IL28A overexpression construct"}}, "key": {"Flag-IL28A-D0 (human)": {"target": "Flag-IL28A-D0 (human) (UniProt Q8IZJ0)", "experiment": "SDS-PAGE and Western blot (band of about 70 kDa)"}, "[1]": {"target": "the molecule itself", "experiment": "SDS-PAGE and Western blot (tetramer and monomer bands)"}}}
{"molecule": "Flag-IL28A-D0 (from UniProt Q8IZJ0 26-200) (natural protein)", "values": [{"measurement": "stoichiometry N", "setting": "Flag-IL28A-D0 (human)", "result": 4}]}
{"molecule": "B1", "values": [{"measurement": "stoichiometry N", "setting": "[1]", "result": 4}]}
